T1: FcγRIIb (UniProt P31994 43-310, limits assumed)
T1 construct: whole, on cells; also called FcgRIIb; Fcγ receptor IIb
T1 sequence (looked up): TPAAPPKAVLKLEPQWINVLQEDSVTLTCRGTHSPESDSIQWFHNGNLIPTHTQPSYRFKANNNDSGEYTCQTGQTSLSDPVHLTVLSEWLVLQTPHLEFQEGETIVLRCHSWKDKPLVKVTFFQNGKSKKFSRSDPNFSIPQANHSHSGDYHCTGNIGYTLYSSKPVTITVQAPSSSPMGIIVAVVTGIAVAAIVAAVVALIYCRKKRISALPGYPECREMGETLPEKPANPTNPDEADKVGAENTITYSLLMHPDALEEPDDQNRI

T2: FcγRIIa (UniProt P12318 34-317, limits assumed)
T2 construct: whole, on cells; also called FcgRIIa; Fcγ receptor IIa
T2 sequence (looked up): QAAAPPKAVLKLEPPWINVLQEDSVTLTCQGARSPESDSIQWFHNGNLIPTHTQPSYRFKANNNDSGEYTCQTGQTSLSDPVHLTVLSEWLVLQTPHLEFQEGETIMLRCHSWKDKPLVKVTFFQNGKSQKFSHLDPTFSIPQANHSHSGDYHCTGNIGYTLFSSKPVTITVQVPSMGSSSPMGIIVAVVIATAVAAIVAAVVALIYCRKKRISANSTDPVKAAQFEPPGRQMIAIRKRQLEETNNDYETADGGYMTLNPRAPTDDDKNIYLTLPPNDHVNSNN

B1: Bs3GC2b bispecific antibody (bispecific antibody, human IgG1, lambda)
heavy: not shown
light: SYVLTQPPSVSVAPGQTASLTCGGTNIGSKSVHWYQQKAGQAPVLVVYADNDRPSGVPERFSGSNSGNTATLTISRVEAEDESDYFCQVWDGNTDHVVFGGGTKLTVLGQPKAAPSVTLFPPSSEELQANKATLVCLISDFYPGAVTVAWKADSSPVKAGVETTTPSKQSNNKYAASSYLSLTPEQWKSHRSYSCQVTHEGSTVEKTVAPTECS
notes: Bispecific tetravalent IgG1, construct type Bs3; specificities GCE536 + GCB59
B2: Bs3GC3b bispecific antibody (bispecific antibody, human IgG1, lambda)
heavy: not shown
light: B1 light
notes: Bispecific tetravalent IgG1, construct type Bs3; specificities GCA7 + GCB59
B3: Bs3GC4 bispecific antibody (bispecific antibody, human IgG1, kappa)
heavy: not shown
light: DIQMTQSPSTLSTSVGDRVTITCRASQNILNWLAWYQQKPGNAPNLLIYKASDLQSGVPSRFSGSGSGTEFTLTISSLQPDDFATYYCQHYNSYPLTFGGGTKVEIKRTVAAPSVFIFPPSDEQLKSGTASVVCLLNNFYPREAKVQWKVDNALQSGNSQESVTEQDSKDSTYSLSSTLTLSKADYEKHKVYACEVTHQGLSSPVTKSFNRGEC
notes: Bispecific tetravalent IgG1, construct type Bs3; specificities GCA21 + GCE536; also called BsGC4
B4: Bs3GC5 bispecific antibody (bispecific antibody, human IgG1, kappa)
heavy: not shown
light: B3 light
notes: Bispecific tetravalent IgG1, construct type Bs3; specificities GCA21 + GCA7
B5: Ts1GC2a trispecific antibody (antibody, human IgG1, kappa)
heavy: not shown
light: EIVLTQSPGTLSLSPGETAILSCRASQSVSSSLLAWYQQKPGQAPRLLIYGASNRATGIRGRFSGSGSGTDFTLTISRLEPEDFVLYYCQHYGSRVTFGQGTKLEIKRTVAAPSVFIFPPSDEQLKSGTASVVCLLNNFYPREAKVQWKVDNALQSGNSQESVTEQDSKDSTYSLSSTLTLSKADYEKHKVYACEVTHQGLSSPVTKSFNRGEC
notes: Trispecific hexavalent IgG1, construct type Ts1; specificities GCE536 + GCA7 + GCB59
B6: Bs3GC1a bispecific antibody (bispecific antibody, human IgG1, kappa)
heavy: not shown
light: B5 light
notes: Bispecific tetravalent IgG1, construct type Bs3; specificities GCE536 + GCA7
B7: Bs1GC2a bispecific antibody (bispecific antibody, human IgG1, kappa)
heavy: not shown
light: B5 light
notes: Bispecific tetravalent IgG1, construct type Bs1; specificities GCE536 + GCB59
B8: Ts3GC2d trispecific antibody (antibody, human IgG1, kappa)
heavy: not shown
light: B5 light
notes: Trispecific hexavalent IgG1, construct type Ts3; specificities GCE536 + GCA7 + GCB59; also called TsGC2d; TsgC2d

Target: T1, FcγRIIb
Test: flow cytometry, TZM-bl FcγRIIb cells; average ratio of binding in presence and in absence of GM-CSF
Method: (§1) Expression of specific FcγRs was assessed by staining TZM-b1 cells with FITC-conjugated anti-CD64 (anti-FcγRI), anti-CD32 (anti-FcγRIIa and anti-FcγRIIb) and anti-CD16 (anti-FcγRIIIa) antibodies (all from BD Pharmingen). Untrasfected and transfected TZM-b1 cells were washed with staining buffer (PBS with 10% Fetal Bovine Serum and 2 mM EDTA) and seeded in 96-well-plates at a density of 50,000 cells per well. […] The LALA versions of all antibodies and a mAb with a different specificity were included as controls. Samples were incubated at 37° C. for 30 min to allow the formation of immune complexes and then cooled down to 4° C. before adding them to TZM-b1 cells for 30 min. Cells were washed twice and stained with anti-human IgG Fcγ fragment specific F(ab′)2 fragment (Jackson ImmunoResearch). Samples were analyzed on BD FACSCanto (BD Biosciences) and median intensity fluorescence was analyzed and compared between samples.
(§2) To address the engagement of Fcγ receptors, immune complexes formed between GM-CSF and multispecific antibodies were tested for their capacity to bind to TZM-b1 cells expressing FcγRIIa and FcγRIIb receptors. Multispecific antibodies were mixed with 0.05 μg/ml of GM-CSF, or staining buffer. Samples were incubated at 37° C. for 30 min to allow the formation of immune complexes and then cooled down to 4° C. before adding them to TZM-b1 cells for 30 minutes. Cells were washed twice and stained with anti-human IgG Fcγ fragment specific F(ab′)2 fragment. Samples were analyzed on BD FACSCanto (BD Biosciences) and median intensity fluorescence was analyzed and compared between samples.

Row | Average RATIO FcgRIIb [ratio] | Binder
1 | 7.67 | B1
2 | 93.3 | B2
3 | 0.81 | B3
4 | 5.58 | B4
5 | 3.96 | B5
6 | 16.6 | B6
7 | 77.8 | B7
8 | 17.2 | B8

Target: T2, FcγRIIa
Test: flow cytometry, TZM-bl cells expressing FcγRIIa, mAb alone (w/o GM-CSF)
Method: as §1, §2

Row | MFI [MFI] | Binder
9 | 6910 | B1
10 | 650 | B2
11 | 6730 | B3
12 | 1100 | B4
13 | 2850 | B5
14 | 687 | B6
15 | 662 | B7
16 | 1310 | B8

Target: T2, FcγRIIa
Test: flow cytometry, TZM-bl cells expressing FcγRIIa, immune complex with low GM-CSF
Method: as §1, §2

Row | MFI [MFI] | Binder
17 | 7130 | B1
18 | 8290 | B2
19 | 24500 | B3
20 | 30200 | B4
21 | 4130 | B5
22 | 1270 | B6
23 | 9140 | B7
24 | 7900 | B8

Target: T1, FcγRIIb
Test: flow cytometry, TZM-bl cells expressing FcγRIIb, immune complex with low GM-CSF
Method: as §1, §2

Row | MFI [MFI] | Binder
25 | 181000 | B1
26 | 57800 | B2
27 | 137000 | B3
28 | 393000 | B4
29 | 136000 | B5
30 | 175000 | B6
31 | 398000 | B7
32 | 344000 | B8

Target: T3, human GM-CSF (granulocyte macrophage-colony stimulating factor) (human, UniProt P04141 18-144)
T3 construct: Soluble cytokine used in ELISA, SPR, TF-1 bioassay and immune complex formation; also called recombinant GM-CSF
Test: ELISA on GM-CSF

T3 sequence (P04141 18-144 limits assumed): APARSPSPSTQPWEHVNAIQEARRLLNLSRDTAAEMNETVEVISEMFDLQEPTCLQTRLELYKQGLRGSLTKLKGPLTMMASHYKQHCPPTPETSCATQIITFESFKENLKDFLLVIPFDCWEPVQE

Row | EC50 [ng/mL] | Binder
33 | 48.6 | B1
34 | 587 | B2
35 | 32.3 | B3
36 | 41.8 | B4
37 | 33.5 | B5
38 | 74.3 | B6
39 | 16.2 | B7
40 | 29.6 | B8

Target: T3, human GM-CSF (granulocyte …)
Test: cell-based or functional assay

Row | IC90 less stringent conditions (50 pg/ml GM-CSF, 1,000 TF-1/well) [ng/mL] | IC90 more stringent conditions (500 pg/ml GM-CSF, 1,000 TF-1/well) [ng/mL] | IC90 stringent conditions (50 pg/ml GM-CSF, 10,000 TF-1/well) [ng/mL] | IC90 very stringent conditions (500 pg/ml GM-CSF, 10,000 TF-1/well) [ng/mL] | Binder
41 | 0.559 | 6.21 | 1.07 | 11.2 | B1
42 | 1.28 | 17.8 | 2.96 | 124 | B2
43 | 9.26 | 97.5 | 90.8 | 739 | B3
44 | 1.3 | 6.46 | 4.18 | 10.2 | B4
45 | 0.265 | 3.17 | 0.281 | 2.53 | B5
46 | 0.681 | 4.72 | 0.963 | 6.24 | B6
47 | 2.77 | 9.92 | 31.4 | 217 | B7
48 | 0.536 | 0.795 | 0.413 | 0.768 | B8

Target: T1, FcγRIIb
Test: flow cytometry, TZM-bl cells expressing FcγRIIb, immune complex with high GM-CSF
Method: as §1, §2

Row | MFI [MFI] | Binder
49 | 1.3e+06 | B1
50 | 433000 | B2
51 | 62600 | B3
52 | 1.58e+06 | B4
53 | 397000 | B5
54 | 510000 | B6
55 | 1.44e+06 | B7
56 | 652000 | B8

Target: T1, FcγRIIb
Test: flow cytometry, TZM-bl cells expressing FcγRIIb, mAb alone (w/o GM-CSF)
Method: as §1, §2

Row | MFI [MFI] | Binder
57 | 96700 | B1
58 | 2630 | B2
59 | 123000 | B3
60 | 177000 | B4
61 | 67200 | B5
62 | 20600 | B6
63 | 11800 | B7
64 | 29000 | B8

Target: T2, FcγRIIa
Test: flow cytometry, TZM-bl cells expressing FcγRIIa, immune complex with high GM-CSF
Method: as §2

Row | MFI [MFI] | Binder
65 | 269000 | B1
66 | 55000 | B2
67 | 19500 | B3
68 | 468000 | B4
69 | 9870 | B5
70 | 65300 | B6
71 | 566000 | B7
72 | 122000 | B8

Target: T2, FcγRIIa
Test: flow cytometry, TZM-bl FcγRIIa cells; average ratio of binding in presence and in absence of GM-CSF
Method: as §2

Row | Average RATIO FcgRIIa [ratio] | Binder
73 | 20 | B1
74 | 48.7 | B2
75 | 3.26 | B3
76 | 226 | B4
77 | 2.46 | B5
78 | 48.4 | B6
79 | 435 | B7
80 | 49.5 | B8

— patent US20200362026A1 (INSTITUTE FOR RESEARCH IN BIOMEDICINE, published 2020)
